Measured values published in the nanobody polyreactivity screen of Harvey et al. (2022).

Test: yeast display, Sf9 membrane polyspecificity reagent, FACS + sequencing; frameworks hold sequencing errors
Method in brief: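 Using colony PCR, genes from sorted yeast display clones were amplified, then sequenced on MiSeq at 2 × 250 and filtered by CDR length. The clones had been stained with 10% biotinylated, detergent-solubilized Sf9 membrane reagent for 1 hour at 4 °C and sorted by FACS into low and high (top ~1%) gates on anti-HA and streptavidin fluorescence. Polyreactivity labels come from the gate of origin.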

Sequence	polyreactivity (PSR sort gate)
QVQLVESGGGLVQAGGSLRLSCAASGSTFESNAMRWYRQAPGKERELVAAISRGGNTYYADSVKGLFTISRDNAKYTVYLQMHSLKPEDTAVYYCNVDRGNPVPPSEYWGQGTKVTVSS	low polyreactivity
QVQLVESGGGLVQAGGSLRLSCAASGSTFVIKAMGWYRQAPGKERELVAAITSGGDTNYADSVKGRFTISRDNSKYTVYLQMNSLKPEDTALYYCNARDGGQGNYSARYDYWGHGTQVTVSS	low polyreactivity
QVQLVESGGGLVQAGGSLRLSCAASGSTFFYYAMGWYRQAPGKERELVAAITSSGGRTYYADSVKGRFTISRDNAKITVYLQMNSLKPEDTAVYYCAARDYRQSRYEYWGQGTQVTVSS	high polyreactivity
QFQLVESGGGLVQAGGSLRLSCAASGSTFKYSAMGWYRQAPGKERELVAIIRSGGRTNYADSVKGRFTISRDNAKNTVYLQMNSLKPEDTAVYYCNARYGRYYGAYEYWGQGTQVTVSS	high polyreactivity
QGQPVESGGGLVQAGGILRLSCAASGFISGGNAMGWDRQAPGKEREFVAAIDNTGSTYYADSVKGRFTISRDNEKNTVYLQMISLKPEDTAVYYFNAEVTEDYVDNDYGGQGTQVTVSS	low polyreactivity
QVQLVESGGGLVQAGGSLRLSCAASGSIFIYYAMGWYRQAPGKERELVAAITWRSGSTYYADSVKGRFTISRDNAKNTVYFQRNSLKPEDNAVNYCAAYAWTATDSARPYGYDYWGQGTQVTVSS	low polyreactivity
QVQLVESGGGLVQAGGSLRLSCAASGRTVYKNTMGWYRQAPGKERELVAAISIRGGSTYYADSVKGRFTISRDNAKNTVYLQMNSLKPEDTAVYYCNVVYQKAARIVDFDYWGQGTQVTVSS	high polyreactivity
QVQLVESGGGLVQAGGSLRLSCAASGIIFGYYAMGWYRQAPGKERELVAAINQDGSSTYYADSVKGRFTISRDNAKNTVYFQMNSLKPEDTAVYYCNARGVPRQDARMGYWGQGTQVTVSS	low polyreactivity
QVQLVESGGGLVQAGGSLRLSCAASGSIFGRNAMGWYRQAPGKERELVAAISTSGGSTYYADSVKGRFTISRDNAKNTVYLQMNSLKPEDTAVYYCNAEQYTQLDVNLYDYWGQGTQVTVSS	low polyreactivity
QVKLVESGGGLVQAGGSLRLSCAASGRTFLRYTMGWYRQAPGKEREFVAAISYDTSSTNYADSVKGRFTISRDNAKNNLYLQMNSLKPEDTAVYYCATGPYYGYDEFDYWGQGTQVTVSS	low polyreactivity
QVQLVESGGGLVQAGASLRLSCAASGSTQGWYAMGRYRQAPGKERELVAAISWSGSSTYYADSVKGRFTISRDTAKNTVYLQMNSLKPEDTAVYYCATTSSEVGELRICDYWGQGTQVTVSS	low polyreactivity
QVQLVESGGGLVQAGGSLRLSCAASGSTLESYAMGWYRQAPGKERELVAAISKSGGRTYYADSVKGRFTISRDNAKNTLYLQMNSLKPEDTAVYYCAADSGTHLTYYWGQGTQVTVSS	high polyreactivity
QVQLVESGGGLVQAGGSLRLSCAASGITFSYAMGWYRQAPGKERELVAGITTSGGSTYADSVKGRFTISRDNAKNTVYLQMNSLKPEDTAVYYCAADRSAVQFSAFLEYDYWGQGTQVTVSS	low polyreactivity
QVQLVESGGGLVQAGGSLRLSCAASGFIFNNYGMGWSRQAPGKERELVATISRGASTNYADSVKGRFTISRDNAKNTVYLQMNSLKPEDTAVYYCAKDYGDWGQGTQVTVSS	low polyreactivity
QVQLVESGGGLLQAGGSLRLSCAASGRTFTNSAMGWYRQEPGKERELVAGISSSGGRTYYAVSVKGRFTISRDNAMNTVYLQMNSLKAEDTAVYYCAAQHSRVYRRMDYWGQGTQVSVSS	high polyreactivity
QVQLVQSGGGLVQAGGSLRLSCAASGRIFRPNAMGWYRQAPGKERELVAAISSGGSTYYADSVKGRFTISRDNAKNTVYFQMYSLKPEDTAVDYCAADRSNRPYYRQGYDYWGQGTQVTVSS	high polyreactivity
QVQLVESGGGLVQAGGSLRLSCAASGRTFVFNAMGWYRQAPGKERELVAAISARGGRTYYADSVKGRFTISRDNAKNTVYLQMNSLKPEDTAVYYCATVPYPNRKVGVDYWGQGTQVTVSS	high polyreactivity
QVQLVESGGGLVQAGGSLRLSCAASGFTFLGNVMGWYRQAPGKERELVAAISITGSTSYADSVKGRFTISRDNAKNTVYLQMNSLKPEDTAVYYCAADGGQVDDSATRLYYWGQGTQVTVSS	high polyreactivity
QGQLVESGGGLVQAGGSLRLSCAASGSTYLGNDMAWYIQAPGKERELVATITGSSGSTYYADSVKGRFTISRDNAKNTVYLQMNSLKPEDTAVYYCNTVYNYWDCYDYWGQGTQVTVSS	low polyreactivity
QVQLVESGGGLVQAGGSLRLSCAASGSIFFINAMGWYRQAPGKERELVADITSGGGTYYADSVKGRFTISRDNAKNTVYLQMNSLKPVDTAVYYCAKEYGFTGYGYWGQCTQVTVSS	low polyreactivity
QVQLVESGGGLVQEGGSLRVSCAASGSTLIRNVMVRYRQAPGKERELVAVITYGVGSTYYADSVKGRFTISRDNAKNTVYLQMNSLKPEDTAVYYCNKDPLVFDYWGQGTQVTVSS	low polyreactivity
QVQLVESVGALVQARGSLRLSCAASGFTFRPYAMGWYRQAPGKERELVAAITRSGGSTYYADSVKGRFTISRDTAKNTVYLQMNSLKPEDTAVYYCAARFARSEYDYWGQGTQVTVSS	high polyreactivity

Sequence	polyreactivity (PSR sort gate)
QVQLVESGGGLLQAGGSLRLSFAASGFTFGRYAMGWYRQAPGKERELVAAISTSGGRTYYADSVKGRFTISRDNAKNTVYLQMNSLKPEDTAVYYCAAEQRRFTGYDYWGQGTQVTVSS	high polyreactivity
QVQLVESGGGLVQAGGSLRVSCAASGYTIKYYAMGWYRQAPGKERELVAAISKDGGSTYYADSVKGRFTISRDNAKNTVYLQMNSLKPEDTAVYYCAAKSNVRYGWREFYWGQGTQVTVSS	high polyreactivity
QVQLVESGGGLVQAGGSLRLSCAPSGRYYAMGWNRQAPGKEREMVAAISSGGSTNYADSVKGRFTISRDNAKNTVYLQMNSLKPEDTAVYYCAALIRQLRYYLYYYWGQGTQVTVSS	high polyreactivity
QVQLVESGGGLVQAGGSLRLSCAASGSIFSRNDMGWYRLAPGKERELVAAITSDDTSTYYADSVNGRFTISRDNAKNTVYLQMNSLKPEDTAVYYCAADYGNPFDYWGQGTQVTVSS	low polyreactivity
QVQLVESGGGLVQAGGSLRLSCAASGFTFSAYDMGWYRQAPGKERELVAAISYSGGSTYYADSVKGRFTISRDTAKNTVYLQMNSLKPEDTAVYYCAADGYYTDYWGQGTQVTVSS	high polyreactivity
QVQLVESGGGLVQAGGSLRLSCAASGFTFFVYAMGWYRQAPGKERELVAVITSGGTTNYADSVKGRFTISRDNAKNTVYLQMNSLKPEDTAVYYCNARGEKRGYYYWGQGTQVTVSS	high polyreactivity
QVQLVESGGGLVQAGGSLRLSCAASGRTFQFYVMGWYRQAPGKERELLASIRSGGSTNYADSVKGRFTISRDNAKNTVYLQMNSLKPEDTAVYYCNADAYGTPEFTSYAVRYDYWGQGTQVTVSS	low polyreactivity
QVQLVESGGGLVQAGGSLRLSCAPSGITFYKYAMGWYRQAPGKERELVATISRRGGTTYYADSVKGRFTISRDNAKNTVYLQMNSLKPEDTAVYYCNADSRTYRYYWSYGYWGQGTQVTVSS	high polyreactivity
QVQLVESGGGLVQAGGSLRLSCAASGSIFDIYGMGWYRQAPGKERELVASISGGAGSTNYADSVKGRFTISRDNAKNTVYLQMNSLNPEDTAVYYCAAEVYVPDYFQHKFDVEYEYWGQGTQVTVSS	low polyreactivity
QVQLVESGGGLVQAGGSLRLSCAASGRIFRWYALGWYRQAPGKERELVAAISSRGGSTYYADSVKGRFTISRDNAKNTVYLQLNSLKPEDTAVYYCAADTSGWQPRYDYWGQGTQVTVSS	high polyreactivity
QVQLVESGGGLVQAGGSLRLSCAASGSTFNSYAMGWYRQAPWKERELVAAISSTGGNTYYADSVKGRFTISRDNAKNTVYLQMNSLKPEDTAVYYCNARRYGKVVRSRYNYWGQGTQVTVSS	high polyreactivity
QVQLVESGGGLVQAGGSLRLSCAASGNIFSTYAIGWTRQAPGKERELVASISENGGSTYYADSVKGRFTISRDNAKNTVYLQMNSLKPDDTAVYYCAKGQLYSLFFQHDAPYRYGYWGQGTQVTVSS	low polyreactivity
QVQLVESGGGLVQAGGSLRLSCAASGFTFYGNAMGWYRQAPGKERELVASISTYYADSVKGRFTISRDNAKNTVYLQMNSLKPEDTAVYYCAATHYDRTYYVIYDYWGQGTQVTVST	low polyreactivity
QVQLVESGGGLVQAGASLRLSCAPSGRIFGPNTMGWSRQAPGKEREVVAAITRRGGSTYYADSVKGRFTISRDNAKNTVYLQMNSLKPEDTAVYYCAAVGQKRSLGFSWGQGTQVTVSS	low polyreactivity
QVQLVESGGGLVQAGGSLRLSCAASGIIFARYAMGWYRQAPGKERELVAVISGSGGSTYYADSVKGRFTISRDNAKNTVYLQMNSLKPEDTAVYYCNAEFESGHDLDWYDYWGQGTQVTVSS	low polyreactivity
QVQLVESGGGLVQAGGSLRLSCAASGFTIIYNAMGWYSQAPGKERELVAAISSGGSTYYADSVKGRFTISRDNAKNTVYFQMNSLKPVDTAVYYCNADVGFFNSGYEDSDYWGQGTQVTVSS	low polyreactivity
QVQLVESGGGLVQAGGSLRLSCAASGFTFYKYAMGWYRQAPGKEREFVASITVRTGSTSYADSVKGRFTISRDNAKNTVYLQMNSLKPEDTAVYYCAAETYYYSWYYLGYTYDYWGHGTQVTVSS	high polyreactivity
QVQLVESGGGLVQAGGSLRLSCAASGFIFTKYTMGWYRQAPGKERELVAAITGRGTSTYADSVKGRFTISRDNAKNTVYLPMNSLIPEDTAVYYCAAVGWFAVFLFSDINGYYLGQGTQVTVSS	low polyreactivity
QVQLVESGGGLVQAGGRLRLSCAASGRTFATNAMGWYRQAPGKERELVADISGGGSTYYADSVKGRFTISRDNAKNTVYLQMNSLKPEDTAVYYCAARDYHWFQWYDYWGQGTQVTVSS	low polyreactivity
QVQLVESGGGLVQAGGSLRLSCAASGNTFSSYAMGWYRQAPGKVRELVAAISRRGGSTYYADSVKRRFTISRDHAKTTVYLQMNSLKPEDTAVYYCAADGTGFRSLRYDYWGQGTQVTVSS	high polyreactivity
QVQLVESGGGLVQAGGSLRLSCAASGRTITWYAMGWYRQAPGTERELVAAITRTGRTTYADSVKGRFTISRDNAKNTVYLQMNSLKPEDTAVYYCAARRWGEYDYWGQGTQVTVSS	high polyreactivity
